For the series, the target named is human transferrin receptor (hTfR), extracellular domain (Homo sapiens, UniProt P02786 89-760). In words: SPR; ka 6.30E+06; kd 1.38E-04 s-1; SPR Biacore T100, SA chip, biotinylated aptamer heated to 65°C then cooled to 37°C before immobilization; five hTfR concentrations at 10 uL/min; 1:1 model with. As to conditions: protein: commercial; tags: N-terminal tag (His implied by Ni-NTA; tag name cut in the text); chain copies: 2; label: biotin. A general note: Surface plasmon resonance follows binding to a sensor surface in real time, without labels.

Here are results for 1 molecule from publication PMC12144868, “New Transferrin Receptor‐Targeting Conjugate Effectively Delivers DNA to Mouse Brain”.

human transferrin receptor (hTfR), extracellular domain, sequence (P02786 89-760): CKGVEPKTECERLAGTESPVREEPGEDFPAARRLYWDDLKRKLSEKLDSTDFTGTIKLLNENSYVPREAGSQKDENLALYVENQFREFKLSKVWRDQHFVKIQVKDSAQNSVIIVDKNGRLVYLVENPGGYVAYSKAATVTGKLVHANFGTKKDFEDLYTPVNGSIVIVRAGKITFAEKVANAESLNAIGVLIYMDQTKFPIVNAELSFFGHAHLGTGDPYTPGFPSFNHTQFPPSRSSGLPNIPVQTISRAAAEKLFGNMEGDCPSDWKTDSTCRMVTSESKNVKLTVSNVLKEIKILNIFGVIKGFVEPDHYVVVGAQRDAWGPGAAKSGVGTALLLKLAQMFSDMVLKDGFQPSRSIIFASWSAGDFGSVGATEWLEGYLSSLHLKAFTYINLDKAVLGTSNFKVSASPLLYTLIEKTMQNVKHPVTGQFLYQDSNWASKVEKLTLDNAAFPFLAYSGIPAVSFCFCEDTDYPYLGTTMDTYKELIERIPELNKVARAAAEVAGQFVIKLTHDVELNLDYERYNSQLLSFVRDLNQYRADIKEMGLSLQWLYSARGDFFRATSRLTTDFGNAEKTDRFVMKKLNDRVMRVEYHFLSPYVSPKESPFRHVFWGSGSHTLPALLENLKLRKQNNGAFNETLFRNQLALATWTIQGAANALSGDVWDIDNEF

B1: tTfR aptamer 22-nt (truncated) (XNA)
RNA: UUUAUUCACAUUUUUGAAUUGA
modifications: all U and C 2'F-2'-deoxy (i2FU, i2FC); A and G ribo
For B1, the Kd was 0.022 nM.

Broadly, the Kd is the concentration at which binding is half-saturated. Read a low Kd as higher affinity.
